This is an account of results in patent US11932673 (IONTAS, dated 2024).

The labels stand for the following.
B1: KB_A07 Shk (antibody, V domains shown)
VH: EVQLVESGGGLVRPGGSLRLSCAASGFTFSSYAMSWVRQAPGKGLEWVSAISGSGGSTYYADSVKGRFTISRDNTKNSLYLQMTSLRADDTAFYYCVKDFGPGYGTGWFDYWGPGTLVTVSS
VL: NWYQQKPGKAPKLLIYAAGVRSCIDTIPKSRCTAFQCKHSMKYRLSFCRKTCGTCSRSGVPSRFSGSGSGTDFTLTISSLQPEDFATYYCQQGASPPYTFGQGTKVEIKR
B2: KB_A12 Shk (antibody, V domains shown)
VH: EVQLVESGGGLVRPGGSLRLSCAASGFTFSSYAMSWVRQAPGKGLEWVSAISGSGGSTYYADSVKGRFTISRDNTKNSLYLQMTSLRADDTAFYYCVKDFGPGYGTGWFDYWGPGTLVTVSS
VL: NWYQQLPGKAPKLLIYAAGRRSCIDTIPKSRCTAFQCKHSMKYRLSFCRKTCGTCANSGVSDRFSAAKSGTSASLAINGLRSEDEADYYCAAWDDSLNGYVFGTGTKLTVLG
B3: KB_A07 Kaliotoxin (antibody, V domains shown)
VH: EVQLVESGGGLVRPGGSLRLSCAASGFTFSSYAMSWVRQAPGKGLEWVSAISGSGGSTYYADSVKGRFTISRDNTKNSLYLQMTSLRADDTAFYYCVKDFGPGYGTGWFDYWGPGTLVTVSS
VL: DIQMTQSPSSLSASVGDRVTITCRASQSISSYLNWYQQKPGKAPKLLIYAAGVGVEINVKCSGSPQCLKPCKDAGMRFGKCMNRKCHCTPKSRSGVPSRFSGSGSGTDFTLTISSLQPEDFATYYCQQGASPPYTFGQGTKVEIKR
B4: KB_A12 MoKa-1 (antibody, V domains shown)
VH: EVQLVESGGGLVRPGGSLRLSCAASGFTFSSYAMSWVRQAPGKGLEWVSAISGSGGSTYYADSVKGRFTISRDNTKNSLYLQMTSLRADDTAFYYCVKDFGPGYGTGWFDYWGPGTLVTVSS
VL: QSVLTQPPSVSEAPRQRVTITCSGSSSNIGNNAVNWYQQLPGKAPKLLIYAAGRINVKCSLPQQCIKPCKDAGMRFGKCMNKKCRCYSANSGVSDRFSAAKSGTSASLAINGLRSEDEADYYCAAWDDSLNGYVFGTGTKLTVLG
B5: KB_A12 (scFv, V domains shown)
VH: EVQLVESGGGLVRPGGSLRLSCAASGFTFSSYAMSWVRQAPGKGLEWVSAISGSGGSTYYADSVKGRFTISRDNTKNSLYLQMTSLRADDTAFYYCVKDFGPGYGTGWFDYWGPGTLVTVSS
VL: AVNWYQQLPGKAPKLLIYAAGRCPRILMRCKQDSDCLAGCVCGPNGFCGANSGVSDRFSAAKSGTSASLAINGLRSEDEADYYCAAWDDSLNGYVFGTGTKLTVLG
B6: KB_A07 (scFv, V domains shown)
VH: EVQLVESGGGLVRPGGSLRLSCAASGFTFSSYAMSWVRQAPGKGLEWVSAISGSGGSTYYADSVKGRFTISRDNTKNSLYLQMTSLRADDTAFYYCVKDFGPGYGTGWFDYWGPGTLVTVSS
VL: YLNWYQQKPGKAPKLLIYAAGVCPRILMRCKQDSDCLAGCVCGPNGFCGSRSGVPSRFSGSGSGTDFTLTISSLQPEDFATYYCQQGASPPYTFGQGTKVEIKR
B7: KB_A12 Kaliotoxin (antibody, V domains shown)
VH: EVQLVESGGGLVRPGGSLRLSCAASGFTFSSYAMSWVRQAPGKGLEWVSAISGSGGSTYYADSVKGRFTISRDNTKNSLYLQMTSLRADDTAFYYCVKDFGPGYGTGWFDYWGPGTLVTVSS
VL: QSVLTQPPSVSEAPRQRVTITCSGSSSNIGNNAVNWYQQLPGKAPKLLIYAAGRGVEINVKCSGSPQCLKPCKDAGMRFGKCMNRKCHCTPKANSGVSDRFSAAKSGTSASLAINGLRSEDEADYYCAAWDDSLNGYVFGTGTKLTVLG
B8: KB_A07 MoKa-1 (antibody, V domains shown)
VH: EVQLVESGGGLVRPGGSLRLSCAASGFTFSSYAMSWVRQAPGKGLEWVSAISGSGGSTYYADSVKGRFTISRDNTKNSLYLQMTSLRADDTAFYYCVKDFGPGYGTGWFDYWGPGTLVTVSS
VL: DIQMTQSPSSLSASVGDRVTITCRASQSISSYLNWYQQKPGKAPKLLIYAAGVINVKCSLPQQCIKPCKDAGMRFGKCMNKKCRCYSSRSGVPSRFSGSGSGTDFTLTISSLQPEDFATYYCQQGASPPYTFGQGTKVEIKR
B9: KB_A12_ProTx-III 2M Gly (antibody, V domains shown)
VH: EVQLVESGGGLVRPGGSLRLSCAASGFTFSSYAMSWVRQAPGKGLEWVSAISGSGGSTYYADSVKGRFTISRDNTKNSLYLQMTSLRADDTAFYYCVKDFGPGYGTGWFDYWGPGTLVTVSS
VL: VNWYQQLPGKAPKLLIYAAGRGCLKFGWKCNPRNDKCCSGLKCGSNHNWCKWHIGANSGVSDRFSAAKSGTSASLAINGLRSEDEADYYCAAWDDSLNGYVFGTGTKLTVLG
B10: KB_A12_ProTx-III 2M 2Gly (antibody, V domains shown)
VH: EVQLVESGGGLVRPGGSLRLSCAASGFTFSSYAMSWVRQAPGKGLEWVSAISGSGGSTYYADSVKGRFTISRDNTKNSLYLQMTSLRADDTAFYYCVKDFGPGYGTGWFDYWGPGTLVTVSS
VL: VNWYQQLPGKAPKLLIYAAGRGCLKFGWKCNPRNDKCCSGLKCGSNHNWCKWHIGGANSGVSDRFSAAKSGTSASLAINGLRSEDEADYYCAAWDDSLNGYVFGTGTKLTVLG
B11: KB_A07_ProTx-III 2M Gly (antibody, V domains shown)
VH: EVQLVESGGGLVRPGGSLRLSCAASGFTFSSYAMSWVRQAPGKGLEWVSAISGSGGSTYYADSVKGRFTISRDNTKNSLYLQMTSLRADDTAFYYCVKDFGPGYGTGWFDYWGPGTLVTVSS
VL: […]

T2 sequence (Q15858 whole entry): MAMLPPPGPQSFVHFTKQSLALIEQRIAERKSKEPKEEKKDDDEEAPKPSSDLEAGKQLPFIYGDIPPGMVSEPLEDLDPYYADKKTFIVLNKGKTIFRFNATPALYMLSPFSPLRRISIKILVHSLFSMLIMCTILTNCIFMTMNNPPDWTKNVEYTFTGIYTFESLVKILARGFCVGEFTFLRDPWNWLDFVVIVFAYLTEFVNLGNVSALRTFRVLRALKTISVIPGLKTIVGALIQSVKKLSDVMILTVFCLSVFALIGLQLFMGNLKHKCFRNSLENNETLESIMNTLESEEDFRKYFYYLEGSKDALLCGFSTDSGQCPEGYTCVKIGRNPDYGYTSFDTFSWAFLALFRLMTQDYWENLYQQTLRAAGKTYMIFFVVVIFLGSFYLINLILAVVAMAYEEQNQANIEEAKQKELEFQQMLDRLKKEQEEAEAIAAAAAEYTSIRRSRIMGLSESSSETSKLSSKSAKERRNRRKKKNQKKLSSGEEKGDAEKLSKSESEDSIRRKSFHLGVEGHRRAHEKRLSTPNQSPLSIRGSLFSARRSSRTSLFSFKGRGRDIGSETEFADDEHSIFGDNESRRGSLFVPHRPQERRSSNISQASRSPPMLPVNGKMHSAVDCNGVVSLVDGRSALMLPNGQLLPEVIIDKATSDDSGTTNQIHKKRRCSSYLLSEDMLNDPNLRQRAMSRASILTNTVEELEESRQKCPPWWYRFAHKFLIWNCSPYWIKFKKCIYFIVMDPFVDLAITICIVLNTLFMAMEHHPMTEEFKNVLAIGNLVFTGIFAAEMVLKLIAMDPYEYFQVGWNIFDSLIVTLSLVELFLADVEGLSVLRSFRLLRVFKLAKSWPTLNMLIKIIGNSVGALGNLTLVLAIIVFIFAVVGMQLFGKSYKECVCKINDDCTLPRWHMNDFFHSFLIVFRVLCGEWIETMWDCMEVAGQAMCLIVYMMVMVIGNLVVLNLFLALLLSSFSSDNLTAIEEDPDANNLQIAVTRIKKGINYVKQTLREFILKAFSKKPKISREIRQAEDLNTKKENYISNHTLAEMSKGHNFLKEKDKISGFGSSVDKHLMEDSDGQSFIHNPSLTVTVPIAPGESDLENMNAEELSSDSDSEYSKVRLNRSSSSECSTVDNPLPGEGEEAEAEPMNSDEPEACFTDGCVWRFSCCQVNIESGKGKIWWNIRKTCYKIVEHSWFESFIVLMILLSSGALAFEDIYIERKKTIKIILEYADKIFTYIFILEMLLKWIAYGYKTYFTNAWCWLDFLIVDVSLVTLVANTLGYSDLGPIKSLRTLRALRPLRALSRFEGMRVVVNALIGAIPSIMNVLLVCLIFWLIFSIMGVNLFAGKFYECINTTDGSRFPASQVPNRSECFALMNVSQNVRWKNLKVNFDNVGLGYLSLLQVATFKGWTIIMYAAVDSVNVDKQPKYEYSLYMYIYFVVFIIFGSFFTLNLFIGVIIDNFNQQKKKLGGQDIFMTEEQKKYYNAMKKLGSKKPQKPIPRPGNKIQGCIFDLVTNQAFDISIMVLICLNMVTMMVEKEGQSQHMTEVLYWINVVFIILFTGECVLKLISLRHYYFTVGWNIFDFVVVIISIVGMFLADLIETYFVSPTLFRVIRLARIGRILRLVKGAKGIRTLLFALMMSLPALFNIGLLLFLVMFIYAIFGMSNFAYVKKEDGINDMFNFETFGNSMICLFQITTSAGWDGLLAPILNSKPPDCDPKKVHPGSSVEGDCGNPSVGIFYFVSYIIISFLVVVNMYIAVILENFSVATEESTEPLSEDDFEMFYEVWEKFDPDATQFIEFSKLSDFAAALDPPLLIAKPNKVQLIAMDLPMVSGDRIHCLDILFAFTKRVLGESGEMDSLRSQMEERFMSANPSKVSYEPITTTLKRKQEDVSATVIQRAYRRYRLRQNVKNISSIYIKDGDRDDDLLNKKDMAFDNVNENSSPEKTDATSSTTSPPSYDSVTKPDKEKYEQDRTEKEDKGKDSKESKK
T1 sequence (P22001 whole entry): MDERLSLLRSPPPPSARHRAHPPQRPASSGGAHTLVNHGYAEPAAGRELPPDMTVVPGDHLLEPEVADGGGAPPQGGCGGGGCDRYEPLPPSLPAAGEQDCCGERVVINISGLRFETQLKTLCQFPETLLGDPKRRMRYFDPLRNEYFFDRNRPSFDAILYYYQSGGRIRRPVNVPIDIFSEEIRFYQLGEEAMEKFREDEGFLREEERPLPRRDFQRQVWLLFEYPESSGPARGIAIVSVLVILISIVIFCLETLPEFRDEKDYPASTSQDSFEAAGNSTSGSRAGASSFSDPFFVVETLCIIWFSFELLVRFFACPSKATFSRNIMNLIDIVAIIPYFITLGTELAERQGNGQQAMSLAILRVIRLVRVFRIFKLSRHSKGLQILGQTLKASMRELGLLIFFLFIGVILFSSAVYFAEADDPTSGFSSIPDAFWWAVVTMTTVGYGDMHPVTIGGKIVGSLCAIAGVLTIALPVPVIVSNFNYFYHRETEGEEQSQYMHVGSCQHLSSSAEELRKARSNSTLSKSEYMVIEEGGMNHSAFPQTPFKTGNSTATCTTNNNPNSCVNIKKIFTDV

One assay has as its target T1, human Kv 1.3 (human, UniProt P22001 1-575). In words: cell-based or functional assay.
Turning to B1, the “IC50 of inhibition of huKv1.3 currents, QPatch whole-cell patch clamp, CHO cells” value turned out to be 40 nM.

Consider B2, for which the “IC50 of inhibition of huKv1.3 currents, QPatch whole-cell patch clamp, CHO cells” value is 20 nM.

On to B3, for which the “IC50 of inhibition of huKv1.3 currents, QPatch whole-cell patch clamp, CHO cells” value worked out at 900 nM.

The target in another assay is T1, human Kv 1.3. In words: cell-based or functional assay. The source holds these as a separate data set.
B4: the “IC50 of inhibition of huKv1.3 currents (extrapolated)” value (“IC50 of inhibition … (extrapolated)” below) is greater than 10000 nM.

For the molecule B5, the “IC50 of inhibition … (extrapolated)” value was greater than 10000 nM.

For the molecule B6, the “IC50 of inhibition … (extrapolated)” value is greater than 10000 nM.

Take B7: the “IC50 of inhibition … (extrapolated)” value is greater than 10000 nM.

With B8, the “IC50 of inhibition … (extrapolated)” value was greater than 10000 nM.

Another assay addresses T2, human Nav1.7 (human, UniProt Q15858 1-1988). In words: cell-based or functional assay.
For the molecule B5, the “IC50 of inhibition of Nav1.7 currents (extrapolated; IgG isotype control)” value was greater than 100000 nM.

A further assay has as its target T2, human Nav1.7. As to the kind of experiment: cell-based or functional assay. This is another data set of the same source.
B9: the “IC50 of inhibition of Nav1.7 currents, QPatch, CHO cells” value (“IC50 of inhibition … QPatch, CHO cells” for short) stood at 1500 nM.

B10: the “IC50 of inhibition … QPatch, CHO cells” value worked out at 1400 nM.

Regarding B11, the “IC50 of inhibition … QPatch, CHO cells” value was 1100 nM.
